Laboratory results from the nanobody polyreactivity screen of Harvey et al. (2022).

test: yeast display, Sf9 membrane polyspecificity reagent, FACS + sequencing; frameworks hold sequencing errors
Method in brief: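 Sorting gates, low and high (top ~1%), were placed on anti-HA fluorescence to track expression and on streptavidin fluorescence to track reagent binding. A clone's polyreactivity label is taken from the gate it came out of. The reagent was 10% biotinylated, detergent-solubilized Sf9 membrane, applied for 1 hour at 4 °C to galactose-induced yeast display cells.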

Row | Sequence | polyreactivity (PSR sort gate)
1 | QVQLVESGGGLVQAGGSLRLSCAPSGRTFSVNDMGWYRQAPGKERELVAAISFSGGSTYYADSVKGRFTISRDNAKNTVYLQMNSLKPEDTAVYYCAAEAYPSWFYVITGFGIYDYWGQGTQVTVSS | high polyreactivity
2 | QVQLVESGGGLVQAGGSLRLSCAPSGRTFWTNAMGWYRQAPGKERELVAAIRNSGGRTYYADSVKGRFTISRDNAKNTVFLQMNSLKPEDSAVYYCNARSSIRPRQGGYEHWGQGTQVTVSS | low polyreactivity
3 | QVQLVESGGGLVQAGGSLRLSCAPSGRTLFHYAMGWYRQAPGKERELVAAISSGGRTNYADSVKGRFTISRDNAKNTVYLQMNSLKPEDTAVYYCAARRFYLQHGFEYWGQGTQVTVSS | high polyreactivity
4 | QVQLVESGGGLVQAGGSLRLSCAPSGRTVRYNAMGWYRQAPGKERELVARITWSGGRTYYADSVKGRFTISRDNAKNTVYLQMNSLKPEDTAVNYGNAPSIAGYAEYNSHDYWGQGTQVTVSS | high polyreactivity
5 | QVQLVESGGGLVQAGGSLRLSCAPSGSIFDYYVRGWSRQAPGKERELVAAISWSGASTYYADSVKGRFTISRDNAKNTVYLQITSLKPEDTAVYYCAADYGVNTLIDYDYWGQGTQVTVSS | low polyreactivity
6 | QVQLVESGGGLVQAGGSLRLSCAPSGSIFERYAMGWYRHAPGKERELVAAISWRGGSTYYADSVKGRFTISRDNAKNTVYLQMNSLIQEDTAVYYCAADSRTCYYYWGQGTQVTVST | high polyreactivity
7 | QVQLVESGGGLVQAGGSLRLSCAPSGSIFGGYAMGWYRQAPGKERELVAAITWGGGSTYYADSVKGRFTISRDNAKNTVYLQMISLKPEATAVYYCAADRSWYDWEDDYWGQGTQVTVSS | low polyreactivity
8 | QVQLVESGGGLVQAGGSLRLSCAPSGSIFNRNVMGWYRQAPGKERELVAAITRGGRTSYADSVKGRFTISRDNAKNTVYLQMNSLKPEDTAVYYCAARRGYWVVYWGQGTQVTVSS | high polyreactivity
9 | QVQLVESGGGLVQAGGSLRLSCAPSGSIFPSYAMGWYRQAPGKERELVAAISRSAGSTYYADSVKGRFTISRDNAKNTVYLQMNSLKPEDTAVYYCAADGYSSRYGYDYWGQGTQVTVSS | low polyreactivity
10 | QVQLVESGGGLVQAGGSLRLSCAPSGSIFRGYTMGWYRQAPVKERELVAAISWSGGSTYYADSVKGRFTISRDNAKNTVYLQMNSLKPEDTAVYYCAAGDYYHRIFLWYDFWGQGTQVNVSS | low polyreactivity
11 | QVQLVESGGGLVQAGGSLRLSCAPSGSIFSYYDMGGYRQAPGKERELVAGISRGGSTNYADSVKGRFTISRDNAKNTVYLQMNSLKPEDTAVYYCNADQSSRTFPFRLSRRSWLYGYWGQGSQVTVSS | low polyreactivity
12 | QVQLVESGGGLVQAGGSLRLSCAPSGSIFYINAMAWYRQAPGKERELVAAITSDGSTYYADSVKGRFTISRDNAKNTVYLQMNSLKPVDTAVYYFAADMTSDQYLYYWYWFYSWGQGTQVTVSS | low polyreactivity
13 | QVQLVESGGGLVQAGGSLRLSCAPSGSIFYVYARGWYRQAPGKERQLVATIPRVGRTYYADSVKGRFTISRDNAKNTVYLQRNSLKPEDTAVYYCATRYGGRSYKYDYWGQGTQVTVSS | high polyreactivity
14 | QVQLVESGGGLVQAGGSLRLSCAPSGSIVRGYAMAWYRQAPGKERELVAAINSSGTRTYYADSVKGRFTISRDNAKNTVYFQLYSLKPEDSAVYYCAARAVSEYFVVPFYYWGQGTQVTVSS | high polyreactivity
15 | QVQLVESGGGLVQAGGSLRLSCAPSGSTFEHYTMGWYRQAPGKERELVAAISRRGGRTYYADSVKGRFTISRDNAKNTVYLQMNSLKPEDTAVYYCNAPVYTRKSIDYDYCGQGTQVTVSS | high polyreactivity
16 | QVQLVESGGGLVQAGGSLRLSCAPSGSTFFWYSMGWYRQAPGKERELVARISRRSGSTYYADSVKGRFTISRDNAKNTVYLQMNSLIPEDTAVYYCNARAVGAPGSVRYDYWGQGTQVTVSS | low polyreactivity
17 | QVQLVESGGGLVQAGGSLRLSCAPSGSTFLSYVMGWYRQAPGKERELVAAITGTGGRTYYADSVKGRFTISRDNAKNTVYLQMNCLKTEDTAVYYCTAYRNHGYDYWGQGTQVTVSS | high polyreactivity
18 | QVQLVESGGGLVQAGGSLRLSCAPSGSTFRTYTMGWYIQAPGKERELVAAITGRGGSTYYADSVKGRFTISRDTAKNTVYFQMNSLKREDTAVYYCAALYGGQTKHDFWGQGTQVTVSS | low polyreactivity
19 | QVQLVESGGGLVQAGGSLRLSCAPSGSTFYSYVMGWYRQATGKERELVAVISNDGSTNYADSVKGRFTISRDNAKNTVYLQMNSLKPEDTAVYYCAALKFVRAYRYYYWGQGTQVTVSS | low polyreactivity
20 | QVQLVESGGGLVQAGGSLRLSCAPSGSTINQYAMGWYRQAPGKESELVAAITRRGGSTYYADSVKGRFTISRDNAKNTVYLQMNSLKPEDTAVYYCAAAYPYTTVSYDYWGQGTQVTVSS | high polyreactivity
21 | QVQLVESGGGLVQAGGSLRLSCAPSGSTIVRYAMGWYRQAPGKERELVAAISGSGGTTYYADSVKGRFTISRDNAKNTVYLQMNSLKPEDTAVYYCATRISAMDYWGQGTQVTVSS | high polyreactivity
22 | QVQLVESGGGLVQAGGSLRLSCAPSGSTLYRNAMGWYRQAPGQDRELVAAINYRGTRTYDADSVKGRFTISRDTAKNTVYLQMNSLQPEDTAVYFCAKDYSQFVTYPYDYWGQGTQVTVSS | low polyreactivity

Row | Sequence | polyreactivity (PSR sort gate)
23 | QVQLVESGGGLVQAGGSLRLSCASSGFIFSSYAMGWYRQAPGKERELVAAISLRSTTTYYADSVKGRFTISRDNAKNSVYLQMNSLKPEDTAVDYCAKGGSRDRYGYWGQGTQVTVSS | high polyreactivity
24 | QVQLVESGGGLVQAGGSLRLSCASSGFIFWYYAMGWYRQAPGKERELVAAISSGDSKNYADSVKGRFTISRDNAKNTVYLQMNCLKPEDTAVYYCAARQPRTQAVYEGYYWGHGTQVTVSS | high polyreactivity
25 | QVQLVESGGGLVQAGGSLRLSCASSGFIIYSYAMGWYRQAPGKERELVAVISSRGGTTYYADSVKGRFTISRDNAKNTVYLQMNSLKPEDTAVYYCAADVWGPYDYWGQGTQVTVSS | low polyreactivity
26 | QVQLVESGGGLVQAGGSLRLSCASSGFTFGYYTKGWYRQAPGKERELVAAITSGGGTYYADSVKGRFTISRDNAKNTVYLQMKSLKPEDTAVYYCATTPGLYKVSSRYGYWGQGTQVTVSS | high polyreactivity
27 | QVQLVESGGGLVQAGGSLRLSCASSGFTFTANDMGWYRKAPGKERELVAAISWSGDSTYYADSVKGRFTISRDNAKNTVYLQMNRLIPEDTAVYYCNVVFEFLSDGYYSYDYWVQGTQVTVSS | low polyreactivity
28 | QVQLVESGGGLVQAGGSLRLSCASSGFTFYKYAMGWYRQAPGKERELVAAITRGDSTYYADSVKGRFTISRDNAKNTVYLQMNSLKPEDTAVYYCNAVFSYRLFNYWGQGTQVTVSS | high polyreactivity
29 | QVQLVESGGGLVQAGGSLRLSCASSGFTFYSYAMGWYRQAPGKERELVAAISKRGGSTYYADSVKGRFTISRDNAKNTVYLQMNSLQPEDTAVYYCNADYPYYYGYDYWGQGTQVTVSS | high polyreactivity
30 | QVQLVESGGGLVQAGGSLRLSCASSGFTLYANAMGGYRQAPGKERELVADISESGSSTSYADSVKGRFTISRDNAKNTVYLQMKSLKPEDTAVYYCYDYWVQGTQVTVSS | low polyreactivity
31 | QVQLVESGGGLVQAGGSLRLSCASSGFTSWDNDMGWYRQAPGKERELVAAISRGGSTNYADSVKGRFTISRDNAKDTVYLQMNSLKPVDTAVYYCNADFAPWDKQDYPYDYDYWGQGTQVTVSS | low polyreactivity
32 | QVQLVESGGGLVQAGGSLRLSCASSGFTYGTNAMVWYRQAPGKERELVAAISSRGGSTYYADSVKGRFTISRDNAKNTVYLLMNSLKPEDTAVYYCARRVARRQHEYGYWGQGTQVTVSS | high polyreactivity
33 | QVQLVESGGGLVQAGGSLRLSCASSGGIFASNVMGWYRQAPGKERELVAAISSITGSTYYADSVKGRFTISRDNAKNTVYLQMNSLKPEDTAVYYCAAYVQFAKIRFDYWGQGTQVTVSS | high polyreactivity
34 | QVQLVESGGGLVQAGGSLRLSCASSGGTLFQNAMGWYRQAPGKESELVATIRVSGGITYYADSVKGRFTISRDNAKNTVYFQMNSLNPEDTAVYYCAKDSADSRAVGDVMTFDYWGQGTQVTVSS | low polyreactivity
35 | QVQLVESGGGLVQAGGSLRLSCASSGITFAKNAMGRYRQAPGKERELVAVITNTNYADSVKGRFTISRDNAKNTVYLQMNSLKPEDTAVYYCAVDGYGWYFARSWLRYYYWGQGTQVTVSS | low polyreactivity
36 | QVQLVESGGGLVQAGGSLRLSCASSGITFRRYTMVWYRQAPGKERELVAAISRIGGSTYYADSVKGRFTISRDNAKNTVYLQMNSLKPEDTAVYYCATYYGGSGYDYWGQGTEVTVSS | high polyreactivity
37 | QVQLVESGGGLVQAGGSLRLSCASSGITLRYYAMGWYRQAPGKERELVAAISSGGRTKYADSVKGRFTISRDNAKNTVYLQMNSLKPENTAVSYCGARKPYVTHTIDVLQAHDYWGQGTQVTVSS | high polyreactivity
38 | QVQLVESGGGLVQAGGSLRLSCASSGLIFKKYTIGWYRQGPGKERELVASISKSGGSTYYADSVKGRFTISRDNAKNTVYLQMNSLNPEDTAVYYCNSVNHYIGFDYWGQGTQVTVSS | low polyreactivity
39 | QVQLVESGGGLVQAGGSLRLSCASSGLIFRVYNMGWYRQAPGKERELVAAITGRGGRTYYADSVKGRFTISRDNAKNTVYLQMNSLKPEDTSVYYCATGGRFQQAAYTGFNYWGQGTQVTVSS | high polyreactivity
40 | QVQLVESGGGLVQAGGSLRLSCASSGLIFWKYAMVWYRQAPGKERELVAAIRKSVGSTYYADSVKGRFTISRDNAKNTVFLQMNSLKPEDTAVYFCAAVYAGVGSQVKPDYCGQGTQVTVSS | high polyreactivity
41 | QVQLVESGGGLVQAGGSLRLSCASSGLTFWRYVMGWYRQAPGKESELVATISIGGSTNYADSVKGRFTISRDNAKNTVYLQMNSLKPEDTAVYYCAAKFRGDVFPYYYWGQGTQVTVSS | high polyreactivity
42 | QVQLVESGGGLVQAGGSLRLSCASSGPIIFAYAMGWYRQAQGKEREFVAAISDNDGSTYYADSVKGRFTISRDNAKNSVYLQMNSLKPEDTAVYYCNADLGYVYDYWGQGTQVTVSS | low polyreactivity
43 | QVQLVESGGGLVQAGGSLRLSCASSGRICGYYAMGLYRQAPGKERELVAAITSGGSTYYADSVKGRFTISRDNEKNTVYFQMKSLKPEDTAVYFCNKVTRYSPYDYWGQGTQVTVSS | high polyreactivity
